Source: patent US20150079111A1, “MECHANISM, DIAGNOSTIC, AND TREATMENTS FOR COMPLICATIONS OF RENAL FAILURE” (priority 2012, published 2015)

Tests used:
[1] = test system: renin-angiotensin-aldosterone (RAS) proteins AGT, ACE, AT1; experiment: RAS protein levels (AGT, ACE, AT1) in PTCs by Western blot; format: cell-based, human; settings: PTCs treated, then exposed to 100 μg/ml of AOPPs (sample set D)
Experimental: (§1) Human Tubular Epithelial Cells (HUTEC) cells were cultured in DMEF/F-12 medium containing 10% fetal calf serum, penicillin (200 U/ml) and streptomycin (200 ug/ml) until confluence, and then left serum-free overnight.
In sample set D, the PTCs were treated with either copper-zinc superoxide dismutase (an […], c-SOD), one of two inhibitors of NADPH oxidase (either diphenyleneiodonium (DPI) or apocynin), a pan-PKC inhibitor (Go6983), or PKCα inhibitor (Go6976). The PTCs were then exposed to 100 μg/ml of AOPPs. The protein levels of downstream renin-angiotensin-aldosterone (RAS) proteins were measured relative to β-actin. The expression of […], ACE, and AT1 was examined by Western blot.

[2] = test system: p47phox, a subunit of NADPH oxidase; experiment: Phosphorylation of p47phox in AOPP-exposed proximal tubule cells (immunoprecipitation / co-immunoprecipitation); format: cell-based, human; settings: PTCs incubated with inhibitor before AOPP exposure (sample set B)
Experimental: as §1
In sample set B, PTCs were incubated with either a pan-PKC inhibitor (Gö6983) or PKCα inhibitor (Gö6976) before AOPP exposure. Phosphorylation of p47phox was assayed by immunoprecipitation.
In sample set F, the level of phosphorylated p47phox in PTC cells was analyzed by co-immunoprecipitation.

[3] = test system: proximal tubule cells (PTCs); experiment: Intracellular ROS production in proximal tubule cells, fluorometric analysis; format: cell-based, human; settings: PTCs pre-incubated or transfected, then exposed to AOPPs (sample set C)
Experimental: as §1
In sample set C, the PTC cells were pre-incubated with either a pan-PKC inhibitor (Gö6983), PKCα inhibitor (Gö6976), anti-RAGE antibody (a-RAGE), transfected with a CD36 siRNA (si-CD36), or both anti-RAGE antibody and transfected with CD36 siRNA (si-CD36+a-RAGE). The PTC cells were then exposed to AOPPs. Intracellular ROS production was determined by a fluorometric analysis.

[4] = patients with type-2 diabetes; cited from earlier work
[5] = test system: human microvascular endothelial cell (HMVECad); experiment: Intracellular ROS production in HMVECad cells, fluorometric analysis; format: cell-based; settings: for intracellular ROS: HMVECads exposed to modified RSA versus control unmodified RSA; for intracellular ROS production: HMVECads, 100 μg/ml for 15, 30, 60 or 120 minutes, effect of exposure time
Description: (§2) Interfering with human microvascular endothelial cell (HMVECad) SCARB1 expression or blocking the receptor using an antibody ameliorates the effect of MDA-protein or pentosidine-protein on intracellular ROS production. Cryopreserved HMVECads were purchased from Life Technologies and cultured according to the company's instructions in Medium 131 with attachment factor (M-131-500) and addition of Microvascular Growth Supplement until confluence, and then left serum-free overnight.
First, HMVECads were treated with 100 μg/ml of one of three solutions. The first solution (MDA-protein) was rat serum albumin (RSA) treated with an equimolar 1 mmol/L solution of malondialdehyde (MDA) and acetaldehyde for 3 days at 37° C. The second solution was pentosidine-RSA, prepared by incubating 0.5 mg of normal RSA with 0.1 M D-glucose in 0.5 ml of 0.1 M sodium phosphate at 37° C. for 14 days. The third solution (the control) was untreated RSA from the same batch. The HMVECads were treated for 15, 30, 60, or 120 minutes. Following the indicated time, intracellular ROS production was determined by a fluorometric analysis.
(§3) Next, the cells were pre-incubated with a polyclonal anti-SCARB1 antibody (a-SRB) or a polyclonal anti-CD36 antibody (a-CD36) or transfected with either SCARB1 siRNA (si-SRB) or CD36 siRNA (siCD36) before exposure to MDA-RSA or Pent-RSA as above. The pre-incubations were performed in various combinations. The labels beneath each set of bars indicate which pre-incubation and which exposure was made to that set. The bars labelled “NC-siRNA” were pre-incubated with scramble siRNA and exposed to untreated RSA. The dark bars are read using the left y-axis, and the white bars are read using the right y-axis.
(§4) The intracellular ROS was a proxy for NADPH oxidase activation and mitochondrial leakage, both of which are linked to cellular stress and induction of apoptosis. The phospho-PKCα measured membrane-associated PKC signalling induced by oxidation and linked to activation of NADPH oxidase and other cellular stressors.

[6] = test system: PKCα; experiment: Phospho-PKCα (membrane-associated PKC signalling, cellular stress) in HMVECad cells; format: cell-based, human; settings: HMVECads exposed to modified RSA versus control unmodified RSA
Description: as §2
Next, the cells were pre-incubated with a polyclonal anti-SCARB1 antibody (a-SRB) or a polyclonal anti-CD36 antibody (a-CD36) or transfected with either SCARB1 siRNA (si-SRB) or CD36 siRNA (siCD36) before exposure to MDA-RSA or Pent-RSA as above. The pre-incubations were performed in various combinations. The labels beneath each set of bars indicate which pre-incubation and which exposure was made to that set. […] The dark bars are read using the left y-axis, and the white bars are read using the right y-axis.
as §4

[7] = test system: AGT, ACE and AT1; experiment: Expression of AGT, ACE and AT1 in HMVECad cells by Western blotting; format: cell-based, human; settings: HMVECads, 60 minutes, modified RSA versus control
Description: as §2, §3
After incubating for 60 minutes, the intracellular ROS production was again determined for the cells of FIG. 20 by a fluorometric analysis. The expression levels of AGT, ACE and AT1 were examined by Western blotting.

## c1ccc2c(c1)[I+]c1ccccc1-2 [DPI, diphenyleneiodonium]
[1]
  protein levels of RAS proteins (AGT, ACE, AT1) relative to β-actin: lower levels of these proteins

## Cn1c2ccccc2c2c3c(c4c5ccccc5n(CCC#N)c4c21)CNC3=O [Gö6976, 12-(2-Cyanoethyl)-6,7,12,13-tetrahydro-13-methyl-5-oxo-5H-indolo(2,3-a)pyrrolo(3,4-c)-carbazole]
[2]
  phosphorylation of p47phox: p47phox is phosphorylated through pan-PKC or PKCα
[3]
  intracellular ROS production: Further reduction
[1]
  protein levels of RAS proteins (AGT, ACE, AT1) relative to β-actin: lower levels of these proteins

## COc1cc(C(C)=O)ccc1O [apocynin]
[1]
  protein levels of RAS proteins (AGT, ACE, AT1) relative to β-actin: lower levels of these proteins

## CC1(C)CC[C@]2(C(=O)O)CC[C@]3(C)[C@H](C(=O)C=C4[C@@]5(C)C=C(C#N)C(=O)C(C)(C)[C@@H]5CC[C@]43C)[C@@H]2C1 [bardoxolone]
[4]
  nephroprotective effect: nephroprotective

## copper-zinc superoxide dismutase [c-SOD]
[1]
  protein levels of RAS proteins (AGT, ACE, AT1) relative to β-actin: lower levels of these proteins

B1: MDA-RSA: rat serum albumin treated with an equimolar 1 mmol/L solution of malondialdehyde and acetaldehyde for 3 days at 37° C. (protein)
chain: EAHKSEIAHRFKDLGEQHFKGLVLIAFSQYLQKCPYEEHIKLVQEVTDFAKTCVADENAENCDKSIHTLFGDKLCAIPKLRDNYGELADCCAKQEPERNECFLQHKDDNPNLPPFQRPEAEAMCTSFQENPTSFLGHYLHEVARRHPYFYAPELLYYAEKYNEVLTQCCTESDKAACLTPKLDAVKEKALVAAVRQRMKCSSMQRFGERAFKAWAVARMSQRFPNAEFAEITKLATDVTKINKECCHGDLLECADDRAELAKYMCENQATISSKLQACCDKPVLQKSQCLAEIEHDNIPADLPSIAADFVEDKEVCKNYAEAKDVFLGTFLYEYSRRHPDYSVSLLLRLAKKYEATLEKCCAEGDPPACYGTVLAEFQPLVEEPKNLVKTNCELYEKLGEYGFQNAVLVRYTQKAPQVSTPTLVEAARNLGRVGTKCCTLPEAQRLPCVEDYLSAILNRLCVLHEKTPVSEKVTKCCSGSLVERRPCFSALTVDETYVPKEFKAETFTFHSDICTLPDKEKQIKKQTALAELVKHKPKATEDQLKTVMGDFAQFVDKCCKAADKDNCFATEGPNLVARSKEALA
[5]
  intracellular ROS: caused an increase in activity compared to the control
  intracellular ROS production: greater ROS production
[6]
  phospho-PKCα (cellular stress signalling): caused an increase in activity compared to the control
[7]
  expression levels of AGT, ACE and AT1: caused an increase in activity compared to the control

B2: Pent-RSA: prepared by incubating normal RSA with 0.1 M D-glucose in sodium phosphate at 37° C. for 14 days (protein)
chain: EAHKSEIAHRFKDLGEQHFKGLVLIAFSQYLQKCPYEEHIKLVQEVTDFAKTCVADENAENCDKSIHTLFGDKLCAIPKLRDNYGELADCCAKQEPERNECFLQHKDDNPNLPPFQRPEAEAMCTSFQENPTSFLGHYLHEVARRHPYFYAPELLYYAEKYNEVLTQCCTESDKAACLTPKLDAVKEKALVAAVRQRMKCSSMQRFGERAFKAWAVARMSQRFPNAEFAEITKLATDVTKINKECCHGDLLECADDRAELAKYMCENQATISSKLQACCDKPVLQKSQCLAEIEHDNIPADLPSIAADFVEDKEVCKNYAEAKDVFLGTFLYEYSRRHPDYSVSLLLRLAKKYEATLEKCCAEGDPPACYGTVLAEFQPLVEEPKNLVKTNCELYEKLGEYGFQNAVLVRYTQKAPQVSTPTLVEAARNLGRVGTKCCTLPEAQRLPCVEDYLSAILNRLCVLHEKTPVSEKVTKCCSGSLVERRPCFSALTVDETYVPKEFKAETFTFHSDICTLPDKEKQIKKQTALAELVKHKPKATEDQLKTVMGDFAQFVDKCCKAADKDNCFATEGPNLVARSKEALA
[5]
  intracellular ROS: caused an increase in activity compared to the control
  intracellular ROS production: greater ROS production
[6]
  phospho-PKCα (cellular stress signalling): caused an increase in activity compared to the control
[7]
  expression levels of AGT, ACE and AT1: caused an increase in activity compared to the control
